In US20120316071A1 (published 2012):
One block for each binder: values may come before it.

Legend:
[1] = target: rHuman HGF R/c-MET/Fc Chimera, CF (R&D Systems Cat#358-MT/CF) (human, UniProt P08581 25-932); test: ECL Multispot (MSD), antigen spotted on plate, Fab in solution; blank spot 292
[2] = target: T1, rHuman Erythropoietin R/Fc Chimera, CF (R&D Systems Cat#963-ER) (human, UniProt P19235 25-250); test: as above
[3] = target: T2, rHuman CD44/Fc Chimera, CF (R&D Systems Cat#3660-CD) (human, UniProt P16070 21-220); test: as above
[4] = target: T3, rHuman Notch-1/Fc Chimera, CF (R&D Systems Cat#3647-TK) (human); test: as above
T3 chain: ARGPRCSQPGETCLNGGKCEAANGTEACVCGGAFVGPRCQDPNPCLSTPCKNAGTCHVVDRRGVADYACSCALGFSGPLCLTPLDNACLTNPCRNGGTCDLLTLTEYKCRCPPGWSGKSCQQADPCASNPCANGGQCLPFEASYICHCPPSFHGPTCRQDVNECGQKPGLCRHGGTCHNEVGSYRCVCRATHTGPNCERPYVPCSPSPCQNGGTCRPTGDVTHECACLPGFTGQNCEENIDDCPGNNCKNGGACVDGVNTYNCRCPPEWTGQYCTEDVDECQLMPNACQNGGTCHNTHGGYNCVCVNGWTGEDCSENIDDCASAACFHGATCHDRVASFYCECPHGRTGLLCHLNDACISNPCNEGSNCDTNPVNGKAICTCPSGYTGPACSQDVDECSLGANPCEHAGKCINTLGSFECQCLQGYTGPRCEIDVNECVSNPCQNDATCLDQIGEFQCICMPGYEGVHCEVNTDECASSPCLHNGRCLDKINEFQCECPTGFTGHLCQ

[5] = target: T4, rHuman P-Cadherin/Fc Chimera, CF (R&D Systems Cat#861-PC) (human, UniProt P22223 108-654); test: as above
[6] = target: T5, rHuman IGF-1 sR (insulin-like growth factor-1 soluble receptor), CF (R&D Systems Cat#391-GR) (human, UniProt P08069 31-932); test: MSD ECL multispot assay, antigen spotted on plate, Fab in solution; blank spot of this row 166
T5 construct: Bought recombinant soluble receptor

[7] = target: T6, rHuman Notch-1/Fc Chimera, CF (R&D Systems Cat#3647-TK) (human, UniProt P46531 19-526); test: as above
T6 construct: Bought recombinant protein; not shown: Fc of the bought chimera

[8] = target: T7, rHuman HGF R/c-MET/Fc Chimera, CF (R&D Systems Cat#358-MT/CF) (human, UniProt P08581 25-932); test: as above
T7 construct: Bought recombinant protein; also called HGF R/Fc; not shown: Fc of the bought chimera

[9] = target: T8, rHuman CD44/Fc Chimera, CF (R&D Systems Cat#3660-CD) (human, UniProt P16070 21-220); test: as above
T8 construct: Bought recombinant protein; not shown: Fc of the bought chimera

[10] = target: T9, rHuman Erythropoietin R/Fc Chimera, CF (R&D Systems Cat#963-ER) (human, UniProt P19235 25-250); test: as above
T9 construct: Bought recombinant protein; also called EPO R; EPO R/Fc; not shown: Fc of the bought chimera
T9 sequence (looked up): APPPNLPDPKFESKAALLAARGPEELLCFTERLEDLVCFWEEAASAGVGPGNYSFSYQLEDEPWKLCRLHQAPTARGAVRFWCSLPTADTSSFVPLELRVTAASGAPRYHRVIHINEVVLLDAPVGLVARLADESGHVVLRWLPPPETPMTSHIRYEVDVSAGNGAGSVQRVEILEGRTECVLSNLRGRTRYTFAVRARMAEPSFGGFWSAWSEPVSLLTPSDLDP

[11] = target: T10, rHuman P-Cadherin/Fc Chimera, CF (R&D Systems Cat#861-PC) (human, UniProt P22223 108-654); test: as above
T10 construct: Bought recombinant protein; not shown: Fc of the bought chimera

[12] = target: T11, Recombinant Human DLL4 (R&D Systems Cat#1506-D4/CF) (human, UniProt Q9NR61 27-524); test: as above
T11 construct: Bought recombinant protein; also called delta-like protein 4; rHuman DLL4

[13] = target: T5, rHuman IGF-1 sR (insulin-like growth …); test: MSD ECL multispot assay, antigen spotted on plate, Fab in solution; blank spot of this row 255
[14] = target: T6, rHuman Notch-1/Fc Chimera, CF (R&D …); test: as above
[15] = target: T7, rHuman HGF R/c-MET/Fc Chimera, CF (R&D …); test: as above
[16] = target: T12, rHuman ErbB2/Fc Chimera, CF (R&D Systems Cat#1129-ER) (human, UniProt P04626 23-652); test: as above
T12 construct: Bought recombinant protein; not shown: Fc of the bought chimera

[17] = target: T8, rHuman CD44/Fc Chimera, CF (R&D Systems …); test: as above
[18] = target: T9, rHuman Erythropoietin R/Fc Chimera, CF …; test: as above
[19] = target: T10, rHuman P-Cadherin/Fc Chimera, CF (R&D …); test: as above
[20] = target: T13, rHuman EGF R/Fc Chimera, CF (R&D Systems Cat#344-ER) (human, UniProt P00533 25-645); test: as above
T13 construct: Bought recombinant protein; not shown: Fc of the bought chimera

[21] = target: T1, rHuman Erythropoietin R/Fc Chimera, CF …; test: ECL Multispot (MSD), antigen spotted on plate, Fab in solution; blank spot 241
[22] = target: T2, rHuman CD44/Fc Chimera, CF (R&D Systems …); test: as above
[23] = target: T3, rHuman Notch-1/Fc Chimera, CF (R&D …); test: as above
[24] = target: T4, rHuman P-Cadherin/Fc Chimera, CF (R&D …); test: as above

ECL signal [1]: 242 | ECL signal [2]: 391 | ECL signal [3]: 282 | ECL signal [4]: 346 | ECL signal [5]: 354
B1: Fab VH1-46_IGHD6-6*01_IGHJ1*01 S102A/S103P/S104F/H111F (APFF) & L6_IGKJ1*01 S92P (Fab, V domains shown)
VH: QVQLVQSGAEVKKPGASVKVSCKASGYTFTSYYMHWVRQAPGQGLEWMGIINPSGGSTSYAQKFQGRVTMTRDTSTSTVYMELSSLRSEDTAVYYCAREEYAPFSAEYFQFWGQGTLVTVSS
VL: EIVLTQSPATLSLSPGERATLSCRASQSVSSYLAWYQQKPGQAPRLLIYDASNRATGIPARFSGSGSGTDFTLTISSLEPEDFAVYYCQQRPNWPPWTFGQGTKVEIKR
notes: also called APFF / S92P

ECL signal [6]: 280 | ECL signal [7]: 328 | ECL signal [8]: 256 | ECL signal [9]: 292 | ECL signal [10]: 385 | ECL signal [11]: 307 | ECL signal [12]: 446
B2: Fab VH1-46_IGHD6-6*01_IGHJ1*01 S102A/S103P/S104F/H111F (APFF) & L6_IGKJ1*01 S92P (Fab, V domains shown)
VH: QVQLVQSGAEVKKPGASVKVSCKASGYTFTSYYMHWVRQAPGQGLEWMGIINPSGGSTSYAQKFQGRVTMTRDTSTSTVYMELSSLRSEDTAVYYCAREEYAPFSAEYFQFWGQGTLVTVSS
VL: EIVLTQSPATLSLSPGERATLSCRASQSVSSYLAWYQQKPGQAPRLLIYDASNRATGIPARFSGSGSGTDFTLTISSLEPEDFAVYYCQQRPNWPPWTFGQGTKVEIKR
notes: Fab; also called APFF / S92P

ECL signal [13]: 246 | ECL signal [14]: 351 | ECL signal [15]: 373 | ECL signal [16]: 282 | ECL signal [17]: 312 | ECL signal [18]: 330 | ECL signal [19]: 340 | ECL signal [20]: 332
B3: Fab VH1-46_IGHD6-6*01_IGHJ1*01 S102A/S103P/S104F/H111F (APFF) & L6_IGKJ1*01 S92Q (Fab, V domains shown)
VH: QVQLVQSGAEVKKPGASVKVSCKASGYTFTSYYMHWVRQAPGQGLEWMGIINPSGGSTSYAQKFQGRVTMTRDTSTSTVYMELSSLRSEDTAVYYCAREEYAPFSAEYFQFWGQGTLVTVSS
VL: EIVLTQSPATLSLSPGERATLSCRASQSVSSYLAWYQQKPGQAPRLLIYDASNRATGIPARFSGSGSGTDFTLTISSLEPEDFAVYYCQQRQNWPPWTFGQGTKVEIKR
notes: Fab; also called APFF / S92Q

ECL signal [21]: 435 | ECL signal [22]: 327 | ECL signal [23]: 321 | ECL signal [24]: 346
B4: Fab VH1-46_IGHD6-6*01_IGHJ1*01 S102A/S103P/S104F/H111F (APFF) & L6_IGKJ1*01 W94M (Fab, V domains shown)
VH: QVQLVQSGAEVKKPGASVKVSCKASGYTFTSYYMHWVRQAPGQGLEWMGIINPSGGSTSYAQKFQGRVTMTRDTSTSTVYMELSSLRSEDTAVYYCAREEYAPFSAEYFQFWGQGTLVTVSS
VL: EIVLTQSPATLSLSPGERATLSCRASQSVSSYLAWYQQKPGQAPRLLIYDASNRATGIPARFSGSGSGTDFTLTISSLEPEDFAVYYCQQRSNMPPWTFGQGTKVEIKR
notes: also called APFF / W94M
